{"source": "paper PMC8087942", "about": "“Full closed loop open‐source algorithm performance comparison in pigs with diabetes” (Clinical and Translational Medicine, 2021)", "test": "Insulin lispro pharmacokinetics after subcutaneous Humalog in fasted pigs with diabetes (plasma lispro by ELISA)", "assay_type": "in vivo, pig", "settings": "pilot study, pigs with diabetes (n = 6), fasted 4–6 h, 4 U Humalog (100 U/ml) subcutaneous, plasma lispro by Insulin Lispro ELISA (Mercodia)", "method": "Insulin pharmacokinetics are more rapid in pigs than in humans. ^19 , ^20 , ^29 Thus, it was necessary to construct models for insulin action to be used in both open‐source systems, which model insulin action as an exponential curve. In AndroidAPS, the parameters defining the curve are time‐to‐peak action (TPA) and total duration of insulin action (DIA). ^23 Loop uses time‐to‐onset, TPA, and DIA. ^15 The pig pharmacokinetic curves for use in open‐source algorithms were determined from data obtained during a pilot study in pigs (n = 6). This experimental pharmacokinetic curve is consistent with pharmacokinetics observed in the pigs used in this study. ^20 Pigs were kept on fast 4–6 h and then injected subcutaneously with a 4 U dose of Humalog (100 U/ml, Eli Lilly). Before injection, baseline blood was sampled from an intravenous catheter line and measured using a handheld glucose monitor (Bayer Contour Next). After injection, blood was sampled from the intravenous catheter line every 5 min for the first 60 min, then every 30 min up to 4 h. Blood was collected in K2EDTA plasma tubes (Greiner‐BioOne) for analysis with ELISA. Plasma lispro concentrations were quantified using an Insulin Lispro ELISA kit (Mercodia). Pharmacodynamics were approximated by blood glucose measurements in a stable fasting state after 2–3 h (Figure 2A). […]", "data": [{"substance": "Humalog: Commercial rapid-acting insulin lispro formulation (100 U/ml, Eli Lilly) injected subcutaneously in pigs", "values": [{"measurement": "near complete exposure duration", "result": "~2", "unit": "h"}, {"measurement": "time of peak serum concentrations", "setting": "sampled every 5 min for 60 min, then every 30 min up to 4 h", "result": "20 to 25", "unit": "min"}]}]}
